Like-named read-outs stand apart in the source and are kept apart here.
Experiments:
[1] = biological target: ALK1-Fc ECD (Homo sapiens) (UniProt P37023); conditions: cited from earlier work
[2] = biological target: ALK1-Fc (ALK1 extracellular domain-Fc fusion protein) (UniProt P37023); test: SPR; Biacore T100; ALK1-Fc (800 RU) or ALK1 monomer (270 RU) amine-coupled to a CM5 chip; ligands injected at 30 μl min^-1 in 0.01 M HEPES pH 7.4, 0.5 M NaCl, 3 mM EDTA, 0.5 mg ml^-1 BSA, 0.01% P20, 25 °C; 1:1 model with mass transport limitations; KD = kd/ka
ALK1-Fc (ALK1 extracellular domain-Fc fusion protein), sequence (P37023 22-118): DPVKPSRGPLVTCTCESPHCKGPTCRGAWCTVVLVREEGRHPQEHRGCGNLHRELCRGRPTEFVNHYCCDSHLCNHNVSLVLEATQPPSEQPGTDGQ

[3] = biological target: ALK1-Fc ECD (Homo sapiens) (UniProt P37023); conditions: cited from earlier work; remark: listed apart in the source

ALK1-Fc ECD (Homo sapiens), sequence (P37023 22-118): as above
BMP10, sequence (O95393 317-424): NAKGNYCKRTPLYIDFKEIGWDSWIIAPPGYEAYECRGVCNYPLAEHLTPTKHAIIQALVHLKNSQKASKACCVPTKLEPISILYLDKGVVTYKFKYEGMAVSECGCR
BMP9, sequence (Q9UK05 320-429): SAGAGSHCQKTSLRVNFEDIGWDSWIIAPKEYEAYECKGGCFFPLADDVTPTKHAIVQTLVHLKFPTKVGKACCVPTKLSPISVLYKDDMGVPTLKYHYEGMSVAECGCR

Substance: BMP9 (from UniProt Q9UK05)
- Kd [1]: 45.2 pM

Substance: BMP9 GF-domain (bone morphogenetic protein 9 growth factor domain) (from UniProt Q9UK05 320-429) (ligand)
- Kd [2]: 48.1 pM

Substance: BMP10 (from UniProt O95393)
- Kd [3]: 10.3 pM

Substance: BMP10 GF-domain (bone morphogenetic protein 10 growth factor domain) (from UniProt O95393 317-424) (ligand)
- Kd [2]: 34.3 pM

Source: PMC7113306
